Data on two substances can be found in patent EP1892250A2.

The target in experiment [1] is αvβ3 integrin on human cells (human) (UniProt P06756). Kind of experiment: cell-based or functional assay.
The target in experiment [2] is α6β1 integrin on human cells (1064SK fibroblasts, endothelial cells) (human) (UniProt P23229). Kind of experiment: cell-based or functional assay.

Some results are limits rather than exact numbers.

Sequence of α6β1 integrin on human cells (1064SK fibroblasts, endothelial cells) (human) (P23229 24-1130, chain 1 of 2): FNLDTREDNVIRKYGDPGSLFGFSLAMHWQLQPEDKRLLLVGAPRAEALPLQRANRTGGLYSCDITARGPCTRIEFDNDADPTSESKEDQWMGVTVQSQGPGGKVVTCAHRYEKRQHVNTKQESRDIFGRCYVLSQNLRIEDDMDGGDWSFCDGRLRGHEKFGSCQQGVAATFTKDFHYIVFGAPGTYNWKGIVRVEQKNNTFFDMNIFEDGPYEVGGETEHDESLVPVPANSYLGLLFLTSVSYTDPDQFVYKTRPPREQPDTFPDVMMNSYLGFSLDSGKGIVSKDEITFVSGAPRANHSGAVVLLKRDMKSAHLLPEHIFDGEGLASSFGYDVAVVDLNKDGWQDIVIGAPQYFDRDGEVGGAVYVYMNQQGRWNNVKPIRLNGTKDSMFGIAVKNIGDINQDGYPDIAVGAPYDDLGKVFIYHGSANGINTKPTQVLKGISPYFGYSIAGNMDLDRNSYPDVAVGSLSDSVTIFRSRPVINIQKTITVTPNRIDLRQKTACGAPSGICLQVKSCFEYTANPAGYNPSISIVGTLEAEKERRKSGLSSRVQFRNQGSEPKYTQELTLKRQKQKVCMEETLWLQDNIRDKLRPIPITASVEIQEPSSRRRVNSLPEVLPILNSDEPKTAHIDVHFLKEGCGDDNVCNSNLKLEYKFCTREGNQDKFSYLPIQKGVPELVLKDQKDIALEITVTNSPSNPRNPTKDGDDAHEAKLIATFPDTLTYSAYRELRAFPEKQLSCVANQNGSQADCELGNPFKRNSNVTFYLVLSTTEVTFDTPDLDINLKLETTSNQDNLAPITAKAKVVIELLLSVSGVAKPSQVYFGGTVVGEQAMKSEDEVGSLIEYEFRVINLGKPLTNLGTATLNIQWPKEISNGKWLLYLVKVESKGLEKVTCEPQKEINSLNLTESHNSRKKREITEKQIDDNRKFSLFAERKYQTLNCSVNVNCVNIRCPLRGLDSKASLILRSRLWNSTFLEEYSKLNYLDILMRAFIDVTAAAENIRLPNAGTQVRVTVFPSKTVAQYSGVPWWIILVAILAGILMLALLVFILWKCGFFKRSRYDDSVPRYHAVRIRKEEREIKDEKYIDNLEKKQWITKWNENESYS
Sequence of α6β1 integrin on human cells (1064SK fibroblasts, endothelial cells) (human) (P05556 21-798, chain 2 of 2, further chain): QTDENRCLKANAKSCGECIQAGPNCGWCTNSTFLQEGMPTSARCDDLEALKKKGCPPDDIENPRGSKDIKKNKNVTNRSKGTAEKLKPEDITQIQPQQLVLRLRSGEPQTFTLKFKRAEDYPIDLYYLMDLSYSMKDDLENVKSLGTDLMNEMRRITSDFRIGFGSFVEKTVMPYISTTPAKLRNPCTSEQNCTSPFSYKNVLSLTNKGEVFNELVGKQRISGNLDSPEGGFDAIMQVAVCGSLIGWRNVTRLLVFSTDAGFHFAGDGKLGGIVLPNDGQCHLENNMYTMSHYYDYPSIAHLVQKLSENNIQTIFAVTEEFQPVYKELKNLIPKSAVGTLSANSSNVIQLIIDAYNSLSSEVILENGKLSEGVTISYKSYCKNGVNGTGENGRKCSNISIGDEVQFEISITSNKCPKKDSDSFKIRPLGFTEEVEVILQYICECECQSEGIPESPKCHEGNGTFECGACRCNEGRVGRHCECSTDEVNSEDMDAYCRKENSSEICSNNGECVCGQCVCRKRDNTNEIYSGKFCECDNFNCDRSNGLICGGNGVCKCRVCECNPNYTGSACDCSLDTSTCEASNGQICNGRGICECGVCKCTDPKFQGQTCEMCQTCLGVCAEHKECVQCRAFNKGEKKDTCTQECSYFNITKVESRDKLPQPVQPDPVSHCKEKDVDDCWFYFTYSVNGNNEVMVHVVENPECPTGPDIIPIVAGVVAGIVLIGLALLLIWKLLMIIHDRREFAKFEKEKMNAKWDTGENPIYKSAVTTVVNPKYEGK
Sequence of αvβ3 integrin on human cells (human) (P06756 31-1048, chain 1 of 2): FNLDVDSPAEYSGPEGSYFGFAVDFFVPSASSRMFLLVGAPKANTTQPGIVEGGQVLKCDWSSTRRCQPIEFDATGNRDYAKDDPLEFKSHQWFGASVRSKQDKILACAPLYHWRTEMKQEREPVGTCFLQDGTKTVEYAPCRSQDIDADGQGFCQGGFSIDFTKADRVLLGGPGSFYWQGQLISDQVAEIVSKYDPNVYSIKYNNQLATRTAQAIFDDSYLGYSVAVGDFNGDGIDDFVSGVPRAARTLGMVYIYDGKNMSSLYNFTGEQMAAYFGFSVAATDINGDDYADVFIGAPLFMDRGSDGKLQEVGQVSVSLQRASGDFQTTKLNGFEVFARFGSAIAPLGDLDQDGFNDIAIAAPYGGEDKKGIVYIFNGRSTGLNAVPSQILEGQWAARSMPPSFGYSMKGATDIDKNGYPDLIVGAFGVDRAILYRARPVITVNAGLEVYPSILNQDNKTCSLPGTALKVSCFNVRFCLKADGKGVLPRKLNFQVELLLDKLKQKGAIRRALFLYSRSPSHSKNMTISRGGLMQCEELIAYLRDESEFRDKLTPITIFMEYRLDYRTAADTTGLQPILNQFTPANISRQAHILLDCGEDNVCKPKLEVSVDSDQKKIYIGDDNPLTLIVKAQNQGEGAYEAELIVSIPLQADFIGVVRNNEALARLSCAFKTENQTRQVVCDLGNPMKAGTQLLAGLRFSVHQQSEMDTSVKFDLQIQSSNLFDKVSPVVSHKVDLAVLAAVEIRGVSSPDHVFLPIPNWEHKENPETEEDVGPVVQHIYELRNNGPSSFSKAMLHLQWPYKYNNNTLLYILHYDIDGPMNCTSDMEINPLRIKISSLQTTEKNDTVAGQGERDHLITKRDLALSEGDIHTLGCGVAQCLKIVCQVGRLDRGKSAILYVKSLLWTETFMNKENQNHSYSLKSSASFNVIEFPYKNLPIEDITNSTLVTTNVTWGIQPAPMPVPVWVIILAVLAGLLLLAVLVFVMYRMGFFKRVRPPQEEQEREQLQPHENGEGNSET
Sequence of αvβ3 integrin on human cells (human) (P05106 27-788, chain 2 of 2, further chain): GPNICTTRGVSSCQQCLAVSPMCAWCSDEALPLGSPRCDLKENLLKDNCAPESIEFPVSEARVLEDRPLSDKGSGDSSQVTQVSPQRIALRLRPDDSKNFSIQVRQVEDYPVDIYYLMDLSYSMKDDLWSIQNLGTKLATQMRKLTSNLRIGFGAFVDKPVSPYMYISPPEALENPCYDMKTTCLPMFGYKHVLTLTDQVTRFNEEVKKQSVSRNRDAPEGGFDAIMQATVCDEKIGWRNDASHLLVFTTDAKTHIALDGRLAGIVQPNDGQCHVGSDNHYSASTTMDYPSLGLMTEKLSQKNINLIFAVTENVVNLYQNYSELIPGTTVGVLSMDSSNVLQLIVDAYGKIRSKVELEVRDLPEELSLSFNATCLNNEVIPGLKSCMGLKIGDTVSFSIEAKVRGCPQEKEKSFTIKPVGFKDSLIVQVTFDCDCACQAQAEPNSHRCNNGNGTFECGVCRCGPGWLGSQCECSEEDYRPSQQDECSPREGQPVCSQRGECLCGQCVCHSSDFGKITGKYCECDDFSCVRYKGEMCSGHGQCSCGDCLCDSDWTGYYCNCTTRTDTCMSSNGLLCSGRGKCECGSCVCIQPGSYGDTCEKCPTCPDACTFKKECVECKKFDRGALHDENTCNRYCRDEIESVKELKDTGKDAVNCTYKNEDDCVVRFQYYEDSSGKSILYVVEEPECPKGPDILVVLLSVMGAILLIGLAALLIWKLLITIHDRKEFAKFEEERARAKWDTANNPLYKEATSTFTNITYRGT

In experiment [1], “human Cyr61 (from UniProt O00622 25-381) (ligand)” returned an HUVE cell adhesion to wild-type Cyr61 (5 µg/ml), relative binding capacity, pre-incubation: Anti-αvβ3 antibody (LM609, 40 µg/ml) of 42%; an HUVE cell adhesion to wild-type Cyr61 (5 µg/ml), relative binding capacity, pre-incubation: EDTA (2.5 mM) of 22%; an HUVE cell adhesion to wild-type Cyr61 (5 µg/ml), relative binding capacity, pre-incubation: None of 100%; an HUVE cell adhesion to wild-type Cyr61 (5 µg/ml), relative binding capacity, pre-incubation: RGD peptide (1 mM) of 50%. In experiment [2], this substance came in with a 1064SK fibroblast adhesion to Cyr61 (2 µg/ml), with anti-α6 antibody 20 µg/ml (A620) of 0.08 A620; a 1064SK fibroblast adhesion to Cyr61 (2 µg/ml), with anti-β1 antibody JB1A 50 µg/ml (A620) of 0.14 A620; a 1064SK fibroblast adhesion to Cyr61 (2 µg/ml), without anti-α6 antibody (A620) of 0.53 A620; a 1064SK fibroblast adhesion to Cyr61 (2 µg/ml), without anti-β1 antibody JB1A (A620) of 0.53 A620. In experiment [2], the 1064SK fibroblast adhesion to Cyr61 (A620), antibody: None (control) is 0.58 A620; the 1064SK fibroblast adhesion to Cyr61 (A620), antibody: anti-α1 (40 µg/ml) was found to be 0.54 A620; the 1064SK fibroblast adhesion to Cyr61 (A620), antibody: anti-α1 + anti-α2 + anti-α3 (40 µg/ml each) stood at 0.56 A620; the 1064SK fibroblast adhesion to Cyr61 (A620), antibody: anti-α2 (40 µg/ml) worked out at 0.6 A620. In experiment [2], the 1064SK fibroblast adhesion to Cyr61 (A620), antibody: anti-α3 (40 µg/ml) stood at 0.55 A620; the 1064SK fibroblast adhesion to Cyr61 (A620), antibody: anti-α4 (40 µg/ml) was found to be 0.56 A620; the inhibition of 1064SK fibroblast adhesion to Cyr61 by anti-α6 antibody is greater than 80%; the inhibition of 1064SK fibroblast adhesion to Cyr61 by anti-β1 antibody JB1A worked out at 75%. In addition, the inhibition of 1064SK fibroblast adhesion to wild-type Cyr61 by anti-α6 antibody (20 µg/ml) in experiment [2] turned out to be 78%.

In experiment [2], mouse laminin (ligand) returned a 1064SK fibroblast adhesion to laminin (5 µg/ml), with anti-α6 antibody 20 µg/ml (A620) of 0.48 A620; a 1064SK fibroblast adhesion to laminin (5 µg/ml), without anti-α6 antibody (A620) of 0.62 A620; an inhibition of 1064SK fibroblast adhesion to laminin by anti-α6 antibody of 22%.
